The record followed here is publication PMC2880568 (PLoS Pathogens, 2010).

Holding throughout (settings): both partners purified
In assay [1] the target is T1, EloBC (elongin B - elongin C heterodimer) (UniProt Q15370 1-118; Q15369 16-111).
T1 construct: also called EloB-EloC heterodimer; full length EloBC
The assay is described as follows: NMR titration.

Assay [2] deals with T1, EloBC (elongin B - elongin C …). The assay is described as follows: SEC. A general note: Size exclusion chromatography separates by hydrodynamic size, large species first.
Assay [3] shares this target. The assay is described as follows: ITC. For orientation: ITC needs no label: the signal is the heat of the interaction.

T1 sequence (Q15370 whole entry, chain 1 of 2): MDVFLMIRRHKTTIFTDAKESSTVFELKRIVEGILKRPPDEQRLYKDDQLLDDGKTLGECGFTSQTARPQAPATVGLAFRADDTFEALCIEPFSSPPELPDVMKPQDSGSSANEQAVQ
T1 sequence (Q15369 16-111, chain 2 of 2): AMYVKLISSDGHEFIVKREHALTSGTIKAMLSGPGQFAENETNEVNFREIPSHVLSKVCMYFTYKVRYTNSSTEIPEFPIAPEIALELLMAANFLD

B1: wild type Vif SOCS-box protein (domain or fragment)
chain: not shown
notes: source: E. coli BL21(DE3), purified (Ni-NTA, Superdex 75)
Consider B1, for which, in assay [1], the “KD fitted to the peak of EloB Asp-101” value was 1710 nM, the “KD fitted to the peak of EloB Lys-104” value was 3560 nM, the “KD fitted to the peak of EloB Met-103” value worked out at 1730 nM and the “KD fitted to the peak of EloB Val-102” value amounted to 430 nM. Also, the stoichiometry N – broadly, the number of molecules, sites or subunits per partner or assembly – in assay [2] worked out at 1. The Kd (usually the free concentration of one partner at which half of the binding sites on the other are occupied at equilibrium, for simple one-to-one binding) in assay [3] came out at 1200 nM.

B2: ΔPPL Vif SOCS-box protein (domain or fragment)
chain: HNKVGSLQYLALAALITPKKIKAAAPSVTKLTEDRWNK
notes: as for B1
Take B2: the Kd in assay [3] is 1250 nM.
